Results: paper PMC11649783, “Structural basis of 3′-tRNA maturation by the human mitochondrial RNase Z complex” (The EMBO Journal, 2024)

Biological target: T1, SDR5C1 (human, UniProt Q99714 1-261)
T1 construct: expression construct as previously described (Reinhard et al, 2017); The subcomplex was purified by Ni2+ IMAC and treated with TEV protease; also called 4xSDR5C1
T1 sequence: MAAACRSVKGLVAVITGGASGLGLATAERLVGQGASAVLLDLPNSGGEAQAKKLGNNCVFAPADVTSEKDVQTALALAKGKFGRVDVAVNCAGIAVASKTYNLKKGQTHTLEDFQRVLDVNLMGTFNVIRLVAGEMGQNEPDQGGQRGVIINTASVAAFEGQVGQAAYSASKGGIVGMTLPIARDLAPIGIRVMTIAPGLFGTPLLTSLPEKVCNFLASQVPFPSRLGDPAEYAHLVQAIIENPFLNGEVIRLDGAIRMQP
Test: cryo-EM structure; RNase Z-HS product complex: assembled at 4 °C from 10 μM TRMT10C/SDR5C1, 20 μM ELAC2 and 20 μM mt-tRNA^His-Ser(AGY) precursor with 200 μM SAM in buffer D (20 mM HEPES 7.5, 50 mM NaCl, 1 mM MgCl2, 1 mM DTT), S200 size exclusion, incubated to complete turnover; 2.9 Å
Details: both partners purified

stoichiometry N: 2 mt-tRNA/TRMT10C per SDR5C1 tetramer
B1: TRMT10C (enzyme, human, UniProt Q7L0Y3 40-403, looked up)
chain: MSSKIPAVTYPKNESTPPSEELELDKWKTTMKSSVQEECVSTISSSKDEDPLAATREFIEMWRLLGREVPEHITEEELKTLMECVSNTAKKKYLKYLYTKEKVKKARQIKKEMKAAAREEAKNIKLLETTEEDKQKNFLFLRLWDRNMDIAMGWKGAQAMQFGQPLVFDMAYENYMKRKELQNTVSQLLESEGWNRRNVDPFHIYFCNLKIDGALHRELVKRYQEKWDKLLLTSTEKSHVDLFPKDSIIYLTADSPNVMTTFRHDKVYVIGSFVDKSMQPGTSLAKAKRLNLATECLPLDKYLQWEIGNKNLTLDQMIRILLCLKNNGNWQEALQFVPKRKHTGFLEISQHSQEFINRLKKAKT
notes: TRMT10C, human; expression construct as previously described (Reinhard et al, 2017); The subcomplex was purified by Ni2+ IMAC and treated with TEV protease
